The assay addresses HBV S-surface antigen (International Enzyme Inc., USA) adr type (hepatitis B virus (adr type)). Put plainly: competition ELISA in solution (Friguet method): antibody pre-mixed with 10^-11 to 10^-6 M antigen, free antibody caught on antigen-coated plate.

Residue numbers refer to the chain shown, from its start.

Consider two molecules from patent US20060014937A1.

B1: humanized antibody YHB1110-13 (antibody, V domains shown)
VH: QVQLKQSGPGLVKPSQTLSLTCTVSGFSLSTYGVQWVRQPPGKGLEWLGVIWSGGNTDYNAAFISRVTISKDTSKNQVSLKLSSVTAADTAVYYCARARYFDVWGAGTTVTVSS
VL: QAVVTQEPSLTVSPGGTVTLTCRSSTGAITTNNFANWFQQKPGQAFRGLIGDTNNRVPGVPARFSGSLLGNKAALTITGAQPEDEAEYYCALWYNNWVFGGGTKLTVLG
For the molecule B1, the Ka turned out to be 1e+08 M⁻¹.

B2: humanized antibody YHB1110-15 (antibody, V domains shown)
VH: B1 VH
VL: B1 VL with L69I, N71D
In turn, B2 yielded a Ka of 7e+07 M⁻¹.
